Assay results taken from the nanobody polyreactivity screen of Harvey et al. (2022).

Assay: yeast display, Sf9 membrane polyspecificity reagent, FACS + sequencing; frameworks hold sequencing errors
In short: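 After 36–48 hours of galactose induction, yeast (Saccharomyces cerevisiae BJ5465) displaying a synthetic nanobody library were stained at 4 °C for 1 hour with 10% biotinylated, detergent-solubilized Sf9 membrane reagent. Streptavidin microbeads enriched the stained cells before FACS sorting into low and high (top ~1%) gates on anti-HA and streptavidin fluorescence. Each clone's polyreactivity label reflects its gate of origin.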

Row | Sequence | polyreactivity (PSR sort gate)
1 | QDQLVESVGGLVQAGVSLRLSCAASGGTFDVNAMGWYRQATGKERELVATISGGGSTNYADSVKGRFTISRDNAKNTVYLQMNSLKPEETAVYYCAAESEPIRNRERDYWGQGTQVTVSS | low polyreactivity
2 | QVQLVESGGGLVQAGGSLRLSCAASGSTFGVNAMGWYRQAPGKERELVAAITWSGDTTYYADSVKGRFTISRDNAKNTVYLQMNSLKPEDSAVYYCATYYYYPSWYLLYGDYNYWGQGTQVTVSS | low polyreactivity
3 | QVQLVESGGGLVQAGGSLRLSCAASGRTFARNAMGWYRQAPGKERELVAAITSGGSTNYADSVKGRFTISRDNAKNTVYLQMNSLIPEDTAVYYCAADGAQYYYGRYYYWGQGTQVTVSS | high polyreactivity
4 | QVQLVESGGGLVQAGGSLRLSCAASGFIFYYYAMGWYRPAPGKERELVAAISVRGGRTYYADSVKGRFTISRDNAKNTVYLQMNSLKPEDTAVYYCAADLYNRGRGSSQSYRTGYDYWGQGTQVTVSS | high polyreactivity
5 | QVQHVESGGGLVQAGGSLRISCAASGSILDGYAMGWYRQAPGKEREFVAAITWSGGRTYYADSVKGRFTISRDNAMNTVYLQMNSLKPEDTAVYYCIAVTGSWRYDFWGQGSQVTVSS | high polyreactivity
6 | QVQLVESGGGLVQAGGSLRLSCAASGSIFAVYVMGWYRQAPGKERDFVAAITYSGTSTNYADSVKGRFTISRDNAKNTVYLQMNSLKPEDTAVFYCAADVRSSNGHYTLYDYWGQGTQVTVSS | high polyreactivity
7 | QVQLVESGGGLVQAGGSLRLSWAASGFTFKYYDMGWYRLAPGQERELVAAIDTSGGNTYYADSVKGRFTISRDNAKNTGYVQMNSLKPEETAVDYCAATVPYYHDDYWGQGTQVTVSS | low polyreactivity
8 | QVQLVESGGGLVQAGGSLRLSCASYGRTFYDYAMGWYRPAPGKERELVAGIRWSGGSTYYADSVKGRFTISRDNAKNTVYLQLNRLKPEDTAVYYCAADWFAGVAADVEYDYWGQGTQVTVSS | low polyreactivity
9 | QVQLVESGGGLDQARGSLRLSCAASGRIFRSYVMGWYRQAPWKERELVAAISWRGGSTYADSVKGRFTISRDNAKNTVYLQMNSLKPEDTAVYYCAARGPYTYRRYCYWGQGTQVTVSS | high polyreactivity
10 | QLQLVESGGGLVQAGGSLRLSCAASGITFGANTMGWYRQAPGTERELVAAITISGGITHYADSVKGRFTISRDNAKNTVYLQMNSLKPEDTAVYYCAAGAYWRLYPYRQRNGGRMYYWGQGTQVTVSS | low polyreactivity
11 | QGQLVDSGGGLVQAGGSLRLICAASGYIFRLYAMGWYRHAPGKERELVAAISRRGGSTYYADSVKGRFTISRDNAKITVYLQMNSLKPEDTAVYYGATDHSYIDDYWGQGTQVTVSS | high polyreactivity
12 | QVQLGESGGGLVQAGGSLRLSCAASGRIIYTNAMGWYRQAPGKETELVAAINRSGGITYYADSVKGRFTISRDNAKNTVYLQMNSLKPEDTAVYYCAKDYSWASYKHDYWGQGTQVTVSS | low polyreactivity
13 | QVQLVESGGGLVQAGGSLRLSCAASGFIFGDNAMGWYRQAPGKERELVAAINSSGGRTYYADSVKGRFTISRDNAKNTVYLQMNSLKPEDTAVYYCNAAYGIASYGSSYYWGQGTQVTVSS | high polyreactivity
14 | QVQLVESGGGLVQAGGSLRLRCPASGRIIGSYTMGSYRQAPGKERELVAAISFSGARTRYADSVKGRFTISRDNAKNTVYFQMNSLKAEDTAVYYCAARFTGGKYDYWGLGTQVTVSS | high polyreactivity
15 | QVHLVESGGGLVQAGGILRVSCAASGRIFRTYVMGWYRQAPGKERELVAAITQRGGTTYYADSVKRRFTISRDNAKNTVYLQMNSLKPEDTAVYYCATRYRYYTERDYWGLGTQVTVSS | high polyreactivity
16 | QVQLVETGGGLVQAGGSLRLSCAASGFTIRRYTMGWYRQAPGKERELVAAITRGVRTYYADSVKGRFTISRDNAKNTVYLQMNSLKPEDTAVYYCNTAQQSERDYWGQGTQVTVSS | high polyreactivity

Row | Sequence | polyreactivity (PSR sort gate)
17 | QVQLVESGGGLVQAGGSLRLSCGASGIIFLVNAMGWYRQAPGRERELVATITSGGSTYADSVKGRFTISRDNAKNTVYLQMNSLKPEDTAVYYCAAVRRRRNSYGYWGQGTQVTVSS | high polyreactivity
18 | QVQLVESGGGLVQAGGSLRLSCAASGSTFYVYAMGWYRKAPGKEREFVAVITTSGGTTYYADSVKGRFTISRDNAKNTVYLQMNSLKPEDTAVYYCNAGVGYYSLPYDYWGQGTQVTVSS | low polyreactivity
19 | QVQLVESGGGLVQAGGSLRLSCAASGFTFSTYAMGWYRQAPGKEREFVAAISRGGTRTYYADSVKGRFTISRDNAKNTVYLQMTSLKPEDTAVYYCAARSKARNGYDYWGQGTQVTVSS | high polyreactivity
20 | QVQLVESGGGLVQAGGSLSLSCPASGRTFSTNAMGWYRQAPGKEREMVAAISARGGSTYYADSVKGRFTISRDNAKNTVYLQMNSLKPEDTAVEYCALRPGRYSYAFDFWGQGTQVTVSS | high polyreactivity
21 | QVQLVESGGCLVQAGGSLRLSCAPSGFIFPYYAMGWYRPAPGQERALVAAITSSGGSTYYADSVKGRFTISRDNAKNTVYLQMNSLKPEETAVYYCNKYRRYVDGYEMDYWGQGTQVTVSS | high polyreactivity
22 | QVQLVESGGGLVQAGGSLRLSCAASGRIFYLYTMGWYRQAPGKERELVAASTRAGRTYYADSVKGRFTISRDNAKNTVYLQMNSLKPEDTAVYYCAAAFLSRVQGYDSWGQGTQVTVSS | high polyreactivity
23 | QVQLVESGGGLVQAGGILRLSCAASGSTFESNTMGGYRQAPGKERELVAAISYSGGRTYYADSVKGRFTISRDNAKNTVYLQMNSLKPEDTAVYYCAARWSVSYHYWGQGTQVTVSS | high polyreactivity
24 | QVQLVESGGGLVQAGVSLRLSCAASGRIFYRYAMGWYRPPPVKERELVAGITSGGSTYYADSVKGRFTISRDNAKNTVYLQMMSLKPEDTAVYYCAAVSYRSRTHRYPATFAYGSWGQGTQETVSS | high polyreactivity
25 | QVQLVESGGGLVQAGGSLRLSCAASGYIFRYYAMGWYRQAPGKERELVAAISWNGGRTYYADSVKGRFTISRDNAKNTVYLQMNSLKPEDTAVYYCNTYWDGAREYDYWGQGTQVTVSS | high polyreactivity
26 | QVQLVESGGGLVQAGGSLRLSCAASGSIFAVYAMGWSRQAPGKERELVAAITTSGGSTYYADSVKGRFTISRDNAKNTVYLQMNSLKPEDTAVYYCAAYRGTLLTAYDYWGQGTQVTVSS | low polyreactivity
27 | QVQLVESGGGLVQAGGSLRLSCAASGSTFYAYAMGWYRQAPGKERELVAAIDSGGSTYYADSVKGRFTISRDNAKNTVYLQMNSLKPEDTAVYYCAVRHRYTRAYWGRVYWGQGTQVTVSS | low polyreactivity
28 | QVQLVESGGGLVQAGGSLRLSCAASGRTFFRYGMGWYRQAPGKEREFVAAITRSGTTTYYADSVKGRFTISRDNAKNTVYLQMNSLKPEDTAVYYCAAQRAARVDGKSDYWGQGTQVTVTS | low polyreactivity
29 | QVQLVESGGGLVQAGGSLRLSCAASGSTFKNNAMGWYRQATGKEREFVAGITRRGTSTYYADSVKGRFTISRDNAKNTVYLQMNSLKPEDTAVYYCAVGVYDYTGTYGYWGQGTQVTVSS | high polyreactivity
30 | QVQLVESGGGLVQAGGSRRLSCAASGSTFWYYAMGWYRQAPGKERELVAAIRWSDGSTYYADSVKGRFTISRDNAKNTVYLQMTSLKPEDTAVYYCEYYYWGQGTQVTVSS | low polyreactivity
31 | QDQHVESGGGLVQAGGSLRLSCAASGLTFGTYAKGWYRQAPGKERELVAAITTGARTYFADSVKGRFTISRDNAKNTVYLKMNSLKPEDTAVYYCAAYKFYSEYEYWGQGTQVTVSS | high polyreactivity
32 | QVQLVESGGGLVQAGGSLRLSCAASGFTFRSYAMGWYRQAPGKVRELVAAISLGGTSTYYADSVKGRFTISRDNAKNTVYLPMNSLKPEDTAVYYCAARSYGHYGYWGQGTQVTVSS | high polyreactivity
